Bridge positions count the residues as written; N and C are the ends. Ends that are not written are not given here.
Molecular target: T1, human islet amyloid polypeptide (IAPP) (human) (not fully specified)
T1 chain: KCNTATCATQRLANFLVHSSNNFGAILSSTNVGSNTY
Assay: seeded thioflavin T fluorescence aggregation kinetics; 5 uM monomeric IAPP with preformed IAPP fibril seeds at 0 to 33% (monomer equivalents), 33 mM acetate, 150 mM KCl, pH 5.3, 37 C, quiescent; elongation (monomer added to fibril ends) from the initial gradient at 33% seeds and the fibril length by cryo-TEM
Settings: remark: other sources report otherwise

- elongation rate constant k+: 500000 M⁻¹ s⁻¹
Binder: KCNTATCATQRLANFLVHSSNNFGAILSSTNVGSNTY-NH2 (disulfide 2-7 (inferred); not fully specified) [human islet amyloid polypeptide (IAPP)]

— PMC8591229
